Patent publication US20080118529

Experiments:
[1] = target: human Aβ(1-40) Dutch type
[2] = target: T1, human fibrin α-chain (148-160) amyloid fragment with Lys157Ala mutation (FP13)
T1 chain: KRLEVDIDIAIRS

B1: human factor XII from plasma (Calbiochem, #233490) (protein)
chain: IPPWEAPKEHKYKAEEHTVVLTVTGEPCHFPFQYHRQLYHKCTHKGRPGPQPWCATTPNFDQDQRWGYCLEPKKVKDHCSKHSPCQKGGTCVNMPSGPHCLCPQHLTGNHCQKEKCFEPQLLRFFHKNEIWYRTEQAAVARCQCKGPDAHCQRLASQACRTNPCLHGGRCLEVEGHRLCHCPVGYTGAFCDVDTKASCYDGRGLSYRGLARTTLSGAPCQPWASEATYRNVTAEQARNWGLGGHAFCRNPDNDIRPWCFVLNRDRLSWEYCDLAQCQTPTQAAPPTPVSPRLHVPLMPAQPAPPKPQPTTRTPPQSQTPGALPAKREQPPSLTRNGPLSCGQRLRKSLSSMTRVVGGLVALRGAHPYIAALYWGHSFCAGSLIAPCWVLTAAHCLQDRPAPEDLTVVLGQERRNHSCEPCQTLAVRSYRLHEAFSPVSYQHDLALLRLQEDADGSCALLSPYVQPVCLPSGAARPSETTLCQVAGWGHQFEGAEEYASFLQEAQVPFLSLERCSAPDVHGSSILPGMLCAGFLEGGTDACQGDSGGPLVCEDQAAERRLTLQGIISWGSGCGDRNKPGVYTDVAYYLAWIREHTVS
For B1, the “activation of factor XII, detected by the conversion of Chromozym-PK upon formation of kallikrein from prekallikrein” value [1] was “Like kaolin, amyloid-like peptide aggregates of FP13 and Aβ stimulate the activation of factor XII”, the “auto-activation of purified factor XII, substrate S-2222” value [1] was “All three amyloid-like aggregates are able to induce factor XII auto-activation ... the potency of the Aβ(1-40) E22Q is somewhat lower” and the “activation of factor XII, detected by the conversion of Chromozym-PK upon formation of kallikrein from prekallikrein” value [2] was “Like kaolin, amyloid-like peptide aggregates of FP13 and Aβ stimulate the activation of factor XII”.
